Assay results published in paper PMC7886143.

Molecular target: PfPDI8 (PF3D7_0827900), 3xV5-tagged (P. falciparum (3D7))
Test: co-IP

## PfBiP, Hsp70 Binding immunoglobulin Protein (natural protein)
  other: 2 fold
